Values joined by “and” are separate entries in the source; they are usually repeats but may differ in a detail not shown here. Equal entries are not always repeated. One block for each binder: values may come before it.
Tests used:
[1] = biological target: T1, PD1-His (human, UniProt Q15116 25-170); experiment: ELISA, plate coated with PD1-His 10 ng/well, OD450
T1 construct: extracellular domain; Expressed in HEK293F; also called recombinant protein PD1-His; not shown: polyhistidine tag

[2] = biological target: T2, PD-L1-His (human, UniProt Q9NZQ7 19-238); experiment: SPR (Biacore 8K), antibody captured on Protein A/G chip, PD-L1-His injected
T2 construct: extracellular domain; Expressed in HEK293F; also called recombinant protein PD-L1-His; not shown: polyhistidine tag
T2 sequence (Q9NZQ7 19-238): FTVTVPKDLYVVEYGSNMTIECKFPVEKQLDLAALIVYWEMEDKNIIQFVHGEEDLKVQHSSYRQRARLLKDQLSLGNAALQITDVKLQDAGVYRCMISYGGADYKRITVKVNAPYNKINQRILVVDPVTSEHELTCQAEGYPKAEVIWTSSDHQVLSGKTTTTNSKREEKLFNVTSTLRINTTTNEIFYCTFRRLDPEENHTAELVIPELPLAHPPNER
Experimental: (§1) Herein, the affinity of the above antibodies to PD-1 or PD-L1 was determined by Biacore 8K (GE healthcare). On Biacore 8K, the chip coupled with Protein A/G was used to capture various antibodies, respectively, and then the recombinant protein PD1-His or PD-L1-His was injected to obtain the binding-dissociation curve, which was eluted with 6M guanidine hydrochloride regeneration buffer for next cycle. Data were analyzed using the Biacore 8K Evaluation Software.

[3] = biological target: T2, PD-L1-His; experiment: ELISA, coated PD-L1-His
[4] = biological target: T3, PD1-ECD-hFc (human, UniProt Q15116 25-170); experiment: ELISA, plate coated with PD1-ECD-hFc 10 ng/well, OD450
T3 construct: extracellular domain; also called Human PD-1-ECD-hFc; human PD1-ECD-hFc; not shown: Fc segment of human IgG1
T3 sequence (Q15116 25-170 limits assumed): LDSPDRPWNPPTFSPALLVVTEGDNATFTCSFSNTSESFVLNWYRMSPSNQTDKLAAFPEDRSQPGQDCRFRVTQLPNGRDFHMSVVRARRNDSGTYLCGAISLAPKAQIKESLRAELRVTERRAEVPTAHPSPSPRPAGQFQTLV
Experimental: (§2) The plates were blocked with PBST containing 1% BSA. The antibodies to be tested were serially diluted, then transferred to the above plates coated with recombinant proteins, incubated at room temperature for half an hour and then the plates were washed; an appropriately diluted HRP-labeled goat anti-human antibody (Fc-Specific) (purchased from Sisgma) was added, incubated at room temperature for half an hour and then the plates were washed; chromogenic solution with TMB as a substrate was added at 100 μl/well, incubated at room temperature for 1˜5 min; 50 μl of stop solution (2M H₂SO₄) was added to stop the reaction. OD450 values were read with a microplate reader (SpectraMax 190). Graphing and data analysis were performed using GraphPad Prism6, and EC50 values were calculated.

[5] = biological target: T4, PD-L1-ECD-hFc (human, UniProt Q9NZQ7 19-238); experiment: ELISA, coated PD-L1-ECD-hFc
T4 construct: extracellular domain; also called biotinylated PD-L1-ECD-hFc; not shown: Fc segment of human IgG1
T4 sequence (Q9NZQ7 19-238 limits assumed): as the sequence (Q9NZQ7 19-238) above
Experimental: as §2

[6] = biological target: T4, PD-L1-ECD-hFc; experiment: competition ELISA: blocks biotinylated PD-L1-ECD-hFc binding to coated PD1-ECD-hFc
Experimental: Human PD-1-ECD-hFc was diluted to 2 μg/ml with sodium carbonate buffer (1.59 g Na₂CO₃ and 2.93 g NaHCO₃ dissolved in 1 L of pure water), and added into a 96-well ELISA plate with a multichannel pipette at 100 μl/well, incubated at room temperature for 4 h; washed once with PBST, blocked with PBST containing 1% BSA at 200 μl/well, incubated at room temperature for 2 h; the blocking solution was discarded, the plate was patted dry, and placed at 4° C. for later use. […] OD450 values were read with a microplate reader (SpectraMax 190). Graphing and data analysis were performed using GraphPad Prism6, and IC50 values were calculated.

[7] = biological target: T1, PD1-His; experiment: ELISA, coated PD1-His
[8] = biological target: T1, PD1-His; experiment: SPR (Biacore 8K), antibody captured on Protein A/G chip, PD1-His injected
Experimental: as §1

[9] = biological target: T3, PD1-ECD-hFc; experiment: ELISA, coated PD1-ECD-hFc
Experimental: as §2

[10] = biological target: T4, PD-L1-ECD-hFc; experiment: ELISA, plate coated with PD-L1-ECD-hFc 10 ng/well, OD450
Experimental: as §2

T1 sequence (Q15116 25-170): as the sequence (Q15116 25-170 limits assumed) above

B2: Anti-PDL1-HC+609-LC (antibody, human IgG1, kappa, V domains shown)
VH: QVQLQQSGGGLVKPSQSLSLTCTVSGFSLTSYGVHWVRQPPGKGLEWIGLIWSGGGTDYNPSLKSRLTISRDTSKNQVSFKISSLTAADTAVYYCARQLGLRAMDYWGQGTSVTVSS
VL: EIVLTQSPATLSLSPGERATLSCRASQSISNFLHWYQQKPGQAPRLLIKYASQSISGIPARFSGSGSGTDFTLTISSLEPEDFAVYFCQQSNSWPHTFGQGTKVEIKR
notes: also called hybrid antibody
binding result [4]: no binding (tested: log10(nM) about 2.1 (about 130 nM))

B4: PDL1-Fab-609-IgG4 (bispecific antibody)
heavy: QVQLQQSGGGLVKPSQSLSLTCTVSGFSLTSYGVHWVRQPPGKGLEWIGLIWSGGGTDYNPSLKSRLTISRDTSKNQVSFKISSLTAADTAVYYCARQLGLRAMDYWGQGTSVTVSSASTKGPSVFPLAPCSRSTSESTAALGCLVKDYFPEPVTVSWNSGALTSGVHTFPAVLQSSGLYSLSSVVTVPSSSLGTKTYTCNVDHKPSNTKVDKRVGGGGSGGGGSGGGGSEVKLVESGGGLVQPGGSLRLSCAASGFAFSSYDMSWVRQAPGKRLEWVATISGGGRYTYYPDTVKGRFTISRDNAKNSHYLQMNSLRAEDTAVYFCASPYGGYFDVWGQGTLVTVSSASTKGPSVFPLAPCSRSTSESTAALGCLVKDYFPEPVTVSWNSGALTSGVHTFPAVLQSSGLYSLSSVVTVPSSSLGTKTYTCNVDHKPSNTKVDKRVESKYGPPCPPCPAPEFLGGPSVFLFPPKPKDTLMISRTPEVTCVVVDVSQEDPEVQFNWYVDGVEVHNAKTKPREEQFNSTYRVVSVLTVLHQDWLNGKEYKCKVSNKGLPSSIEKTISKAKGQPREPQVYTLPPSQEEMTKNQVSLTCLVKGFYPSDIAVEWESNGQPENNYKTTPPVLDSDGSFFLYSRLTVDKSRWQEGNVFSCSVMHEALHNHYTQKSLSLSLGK
light: EIVLTQSPDFLSVTPKEKVTITCRASQSIGTTIHWYQQKPDQSPKLLIKYASQSFSGVPSRFSGSGSGTDFTLTINSVEAEDAATYYCQQSNSWPLTFGAGTKLEIKRTVAAPSVFIFPPSDEQLKSGTASVVCLLNNFYPREAKVQWKVDNALQSGNSQESVTEQDSKDSTYSLSSTLTLSKADYEKHKVYACEVTHQGLSSPVTKSFNRGEC
notes: expressed with the common light chain Anti-PDL1-LC; also called tetravalent bispecific antibody against PD-1 and PD-L1
EC50 [7]: 5310 pM | EC50 [3]: 140 pM

B5: 609-Fab-PDL1-IgG4 (bispecific antibody)
heavy: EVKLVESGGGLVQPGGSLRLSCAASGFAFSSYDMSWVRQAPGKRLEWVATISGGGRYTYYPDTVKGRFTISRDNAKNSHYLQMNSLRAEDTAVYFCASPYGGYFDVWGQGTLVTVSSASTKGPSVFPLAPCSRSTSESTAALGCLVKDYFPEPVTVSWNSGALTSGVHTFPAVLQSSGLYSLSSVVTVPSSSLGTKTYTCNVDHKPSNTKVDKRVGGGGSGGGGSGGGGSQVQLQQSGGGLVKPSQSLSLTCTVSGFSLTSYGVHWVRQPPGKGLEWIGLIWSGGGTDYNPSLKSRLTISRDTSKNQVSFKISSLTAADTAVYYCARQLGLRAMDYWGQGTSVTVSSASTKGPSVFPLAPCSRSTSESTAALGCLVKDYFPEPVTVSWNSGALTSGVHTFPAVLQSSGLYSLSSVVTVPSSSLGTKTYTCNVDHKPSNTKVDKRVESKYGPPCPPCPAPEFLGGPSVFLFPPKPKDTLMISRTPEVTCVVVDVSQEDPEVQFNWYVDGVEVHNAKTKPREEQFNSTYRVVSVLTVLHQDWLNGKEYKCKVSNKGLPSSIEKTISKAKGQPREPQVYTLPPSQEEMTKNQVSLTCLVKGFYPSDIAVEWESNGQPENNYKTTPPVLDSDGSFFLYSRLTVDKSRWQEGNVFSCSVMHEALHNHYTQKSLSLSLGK
light: B4 light
notes: as for B4
EC50 [7]: 421 pM | Kd [2]: 608 pM | koff [2]: 0.00112 s⁻¹ | kon [2]: 1.85e+06 M⁻¹ s⁻¹ | EC50 [3]: 135 pM | Kd [8]: 25700 pM | koff [8]: 0.00443 s⁻¹ | kon [8]: 173000 M⁻¹ s⁻¹

B6: mAb1-25-Hu (609) (antibody, human IgG4 S228P, kappa, V domains shown)
VH: EVKLVESGGGLVQPGGSLRLSCAASGFAFSSYDMSWVRQAPGKRLEWVATISGGGRYTYYPDTVKGRFTISRDNAKNSHYLQMNSLRAEDTAVYFCASPYGGYFDVWGQGTLVTVSS
VL: B2 VL
notes: Humanized anti-human PD-1 monoclonal antibody, human IgG4 (S228P) / kappa
binding result [10]: no binding (tested: log10(nM) about 2.1 (about 130 nM))

The next lines start with results.

Kd [2]: 843 pM | koff [2]: 0.00138 s⁻¹ | kon [2]: 1.63e+06 M⁻¹ s⁻¹ | EC50 [3]: 120 pM and 102 pM | EC50 [5]: 125 pM | IC50 [6]: 1370 pM
B1: Anti-PDL1 (antibody, human IgG1, kappa, V domains shown)
VH: B2 VH
VL: EIVLTQSPDFLSVTPKEKVTITCRASQSIGTTIHWYQQKPDQSPKLLIKYASQSFSGVPSRFSGSGSGTDFTLTINSVEAEDAATYYCQQSNSWPLTFGAGTKLEIKR
notes: Humanized from murine M8; human IgG1 / kappa; also called humanized anti-human PD-L1 antibody; Anti-PDL1-HC+Anti-PDL1-LC
binding result [1]: no binding (tested: log10(nM) about 2.4 (about 250 nM)) | binding result [4]: no binding (tested: log10(nM) about 2.1 (about 130 nM))

EC50 [7]: 382 pM | Kd [8]: 34900 pM | koff [8]: 0.00439 s⁻¹ | kon [8]: 126000 M⁻¹ s⁻¹ | EC50 [9]: 244 pM
B3: 609-HC+Anti-PDL1-LC (antibody, human IgG4 S228P, kappa, V domains shown)
VH: B6 VH
VL: B1 VL
notes: also called hybrid antibody
